Data taken from patent US20170008975A1, “Anti-Tissue Inhibitor of Metalloproteinase-4 (Timp-4) Antibodies and Methods of Use Thereof” (LANKENAU INSTITUTE FOR MEDICAL RESEARCH, priority 2014, published 2017).
Entries after “also recorded” stand apart in the source; their conditions may differ.

Legend:
AKT = experiment: Western blotting of AKT activation in breast cancer cell cultures; type: cell-based
Source text: TIMP-4 appears to induce PI3K/AKT signaling, a critically important cancer cell pathway (Cantley, L. C. (2002) Science, 296:1655-7; Lopez-Knowles et al. (2010) Int. J. Cancer, 126:1121-31), through binding to the tetraspanin CD63 (Jung et al. (2006) EMBO J., 25:3934-42) (FIG. 3). […] Prior to clinical use of Her-2 targeting therapy (Herceptin®), breast cancers that were positive for Her-2 were, like TNBCs, associated with fast growth rate, early recurrence and distant disease resulting in a prognosis of poor survival (Hsieh et al. (2007) Br. J. Cancer, 97:453-7).

[1] = tested on: CD63 negative SK-Br-3 cells; experiment: Modified Boyden chamber invasion, SK-Br-3; type: cell-based, human; settings: 2nM TIMP-4 for 24 hours, N=6
Experimental: (§1) MDA-MB-468 cell were compared to the CD63 negative SK-Br-3 cells using a modified Boyden chamber to assess invasion in absence (Ctrl) and presence of 2nM TIMP-4 (N=6). […] Clonogenic growth assay (Ayene et al. (2000) Int. J. Radiat. Biol., 76:1523-1531) was used to determine the survival advantage for MDA-MB-468 cells under elevtedTIMP-4 conditions after irradiation (N=3). […] This effect can be prevented by pre-treating the cells with LY294002. […] Further, cells cultured in normal medium began to detach and die as they reached contact inhibition (day 10), whereas cells in TIMP-4-supplemented media continued to survive and grow. Growth augmented by TIMP-4 could be blocked by the addition of the TIMP-4 mAb of the instant invention. Briefly, TIMP-4 mAbs were obtained by delivering a purified glutathione-S-transferase (GST) chimeric protein comprising the human full-length 224 amino acid TIMP-4 (GenBank Accession No. NM_003256.2).

MDA-MB-468 cell = experiment: Modified Boyden chamber invasion, MDA-MB-468; type: cell-based, human; settings: 2nM TIMP-4 for 24 hours, N=6
Experimental: as §1

CD63 = target: T1, CD63 (Homo sapiens, UniProt P08962); experiment: Immunoprecipitation and immunofluorescence staining for CD63 binding; settings: MDA-MB-468, 2nM TIMP-4
T1 construct: endogenous in cells; host or cells: MDA-MB-468
T1 sequence (P08962 1-238): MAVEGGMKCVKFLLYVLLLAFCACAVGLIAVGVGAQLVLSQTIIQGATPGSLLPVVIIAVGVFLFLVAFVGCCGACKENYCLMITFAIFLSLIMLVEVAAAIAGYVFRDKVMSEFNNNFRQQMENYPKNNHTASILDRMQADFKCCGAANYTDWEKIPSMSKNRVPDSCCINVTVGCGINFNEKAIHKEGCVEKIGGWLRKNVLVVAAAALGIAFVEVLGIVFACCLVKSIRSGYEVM
Source text: Human breast cancer cell-lines expressing the tetraspanin CD63 (Chirco et al. (2006) Cancer Met. Rev., 25:99-113), as determined by FACS analysis, include MDA-MB-468.

MDA-MB-468 cells [2] = experiment: MDA-MB-468 orthotopic xenograft in mammary fat pad of nude mice with TIMP-4 or placebo slow-release pellets; type: in vivo; settings: TIMP-4 slow-release pellets implanted two weeks before cells
Experimental: FIGS. 7A and B show the effect of modulating TIMP-4 levels in a pilot animal study. Slow-release pellets were used to elevate the TIMP-4 (FIG. 7A) levels in the mammary fatpad (mfp) prior to implanting human TNBC cells. Placebo pellets (FIG. 7B) were used for control conditions. Once tumors were established, twice weekly doses of the anti-TIMP-4 or iso-type control mAb were administered during a two-week period (i.e. in total four treatments). Animals were followed for an additional two weeks post-treatment.
Inguinal mammary fat pads in nude mice were implanted with slow-release pellets (Innovative Research of America, Fla.) containing TIMP-4 to elevate its levels. Two weeks later, MDA-MB-468 cells were mixed with Matrigel™ (LDEV and phenol red free, BD Biosciences) and injected at the same site as an orthotopic xenograft. […] Tumor-bearing mice from both the groups shown were then randomly divided in half and treated by i.p. injection with 1 mg IgG of TIMP-4 mAb (clone 18:4-7) or a matched isotype control IgG2bk (BioXCell, N.H.), in sterile azide-free solution, administered twice weekly for 2 weeks. […] The antibody had no effect on animals without elevated TIMP-4 (FIG. 7B).

[3] = tested on: triple-negative human breast cancer cell-line MDA-MB-468; experiment: Growth of MDA-MB-468 in culture with or without 2 nM TIMP-4; type: cell-based; settings: normal media supplemented with 2 nM TIMP-4
Experimental: as §1

MDA-MB-468 cells [4] = experiment: Clonogenic growth assay after irradiation; type: cell-based, human; settings: elevated TIMP-4 conditions, N=3
Experimental: as §1

TIMP-1: member of the mammalian TIMP family, secreted circulating protein
activation of AKT (pAkt Ser473) (AKT): can activate AKT

B1: TIMP-4: tissue inhibitor of metalloproteinase-4 protein (R&D Systems, Inc), added to media or given in slow-release pellets (protein, UniProt Q99727 30-224, looked up)
Metalloproteinase inhibitor 4: CSCAPAHPQQHICHSALVIRAKISSEKVVPASADPADTEKMLRYEIKQIKMFKGFEKVKDVQYIYTPFDSSLCGVKLEANSQKQYLLTGQVLSDGKVFIHLCNYIEPWEDLSLVQRESLNHHYHLNCGCQITTCYTVPCTISAPNECLWTDWLLERKLYGYQAQHYVCMKHVDGTCSWYRGHLPLRKEFVDIVQP
invasiveness of SK-Br-3 [1]: did not increase the invasiveness | invasiveness of MDA-MB-468 (MDA-MB-468 cell): increased the invasiveness | binding to CD63 (CD63): functional binding partner | tumor size and growth rate with TIMP-4 pellets versus placebo pellets (MDA-MB-468 cells [2]): Differences in tumor size and growth rate | activation of AKT (pAkt Ser473) (AKT): can activate AKT; also recorded: sufficient to activate the PI3K/AKT pathway | growth rate of MDA-MB-468 [3]: increased growth rate; also recorded: relatively faster growth rate | survival of MDA-MB-468 cells after irradiation (MDA-MB-468 cells [4]): increased survival
